Test results: article PMC9701186 (Nature Communications, 2022)

Experiments:
[1] = target: Aigai virus strain Pentalofos GP38 (Aigai virus, strain Pentalofos, UniProt A0A2P1JMM7, strain); assay: BLI; […]; antibody (1 µg/mL) […] (AHC) sensors; […]; 300 s association, 600 s dissociation; global 1:1 fit; settings: both partners purified
[2] = target: Aigai virus strain Pentalofos GP38 (Aigai virus, strain Pentalofos, UniProt A0A2P1JMM7, strain); assay: BLI; […]; mAb (1 µg/mL) […] (AHC) sensors; […]; 1× Octet kinetics buffer; global 1:1 fit; settings: both partners purified

Binder | binding result [1] | binding result [2]
human chimeric 13G8 mAb (c13G8) (antibody, V domains shown, copies: 2 + 2) VH: DVQLQQSGPGLVAPSQSLSITCTVSGFSLTNYGIHWVRQPPGKGLEWLGVIWAGGYTKYNSALMSRLSMSKDNSKSQVFLKMNSLQTDDTAMYYCARDEVRRDYYAMDHWGQGTTVTVSS VL: DIQMTQSPAILSASPGEKVTMTCWASSGVSYMHWYQQKPGSSPKPWIFATSNLASGVPARFSGSGSGTSYSLTISRVEAEDAATYYCQQWSFNPLTFGAGTKLEIK | no binding (tested: 100nM) | –
human chimeric 13G8 mAb (c13G8) (antibody, V domains shown, source: Expi293 cells, purified (mAb Select Sure column)) VH: DVQLQQSGPGLVAPSQSLSITCTVSGFSLTNYGIHWVRQPPGKGLEWLGVIWAGGYTKYNSALMSRLSMSKDNSKSQVFLKMNSLQTDDTAMYYCARDEVRRDYYAMDHWGQGTTVTVSS VL: DIQMTQSPAILSASPGEKVTMTCWASSGVSYMHWYQQKPGSSPKPWIFATSNLASGVPARFSGSGSGTSYSLTISRVEAEDAATYYCQQWSFNPLTFGAGTKLEIK | – | no binding (tested: up to 20.0 nM GP38)
CC5-17 mAb (antibody, V domains shown, copies: 2 + 2) VH: EVQLVQSGAEVKKPGESLRISCKGSGYSFTSYWIGWVRQMPGKGLEWMGIIYPGDSDTRYSPSFQGQVTISADKSISTAYLQWTSLKASDTAMYYCARQLGGSSFGNYYDSGSYYTAAYWGQGTLVTVSS VL: DIQMTQSPSSLSASVGDRVTITCRASQSINNYLNWYQQKPGKAPKLLIYAASTLQSGVPSRFSGSGSGTDFTLTISSLQPEDFASYYCQQSYRGTFGQGTKVEFK | no binding (tested: 100nM) | –
CC5-17 mAb (antibody, V domains shown) VH: EVQLVQSGAEVKKPGESLRISCKGSGYSFTSYWIGWVRQMPGKGLEWMGIIYPGDSDTRYSPSFQGQVTISADKSISTAYLQWTSLKASDTAMYYCARQLGGSSFGNYYDSGSYYTAAYWGQGTLVTVSS VL: DIQMTQSPSSLSASVGDRVTITCRASQSINNYLNWYQQKPGKAPKLLIYAASTLQSGVPSRFSGSGSGTDFTLTISSLQPEDFASYYCQQSYRGTFGQGTKVEFK | – | no binding (tested: up to 20.0 nM GP38)
